Legend:
[1] = target: SNAP25 full length (FLAG and MYC tagged) (Homo sapiens, UniProt P60880 SEQ:12-217); assay: ELONA; full-length SNAP25; conditions: tags: FLAG and MYC
Description: (§1) The data in Table 2 was collected by running direct ELISA assays on the 96 X-aptamers, elucidating their ability to bind SNAP25, SNAP25 fragments (PEP1, PEP2, PEP3, and PEP4), and a negative control. The X-aptamers were biotinylated and immobilized onto streptavidin-coated plates and were utilized as detection molecules. Higher numbers represent strong binding. The negative control peptide is a random peptide to measure the amount of binding that occurs to a random amino acid sequence.

[2] = target: T1, SNAP25 Peptide 3 (PEP3; only a fragment of it is a SNAP25 subsequence) (Homo sapiens, UniProt P60880 SEQ:1-33); assay: ELONA
T1 chain: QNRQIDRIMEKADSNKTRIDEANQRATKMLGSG
Description: as §1

SNAP25 full length (FLAG and MYC tagged), sequence (P60880 whole entry, the tested form may be a part): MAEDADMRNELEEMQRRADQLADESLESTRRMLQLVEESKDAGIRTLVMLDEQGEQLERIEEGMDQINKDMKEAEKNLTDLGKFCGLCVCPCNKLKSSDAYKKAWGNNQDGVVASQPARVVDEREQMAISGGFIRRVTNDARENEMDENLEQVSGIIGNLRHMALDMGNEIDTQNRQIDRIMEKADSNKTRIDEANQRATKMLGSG

B1: PEP 3.09 (ssDNA)
DNA: TTTTTAAGCCCACTGCACTGTGTACATCGAACTGCACCAACGTGGGCCCATG
modifications: W indole, X amine, Y phenol modified dU [14X,19Y,23W,27X]
B1 gave a binding signal [1] of 168 ELISA signal and a binding signal [2] of 196 ELISA signal.

— patent publication US20220064648, “NOVEL X-[…] FOR THE USE IN DETECTION OF SNAP25” (Galderma Holding S.A., published 2022)
